Data reported in publication PMC11573612 (Molecular Therapy, 2024).

What was measured:
[1] = target: T1, PD-L1 of the PD-1 [Biotinylated]: PD-L1 Inhibitor Screening ELISA Assay Pair (Acro Biosystems EP-101) (UniProt Q9NZQ7 19-238); test: ELISA; competition: PD-1 [Biotinylated]: PD-L1 Inhibitor Screening ELISA Assay Pair (Acro Biosystems EP-101) with recombinant VSTM2A as inhibitor; conditions: both partners purified
T1 construct: PD-L1 of a bought ELISA assay pair; The construct is described only by the kit's manufacturer; source: bought: Acro Biosystems (EP-101 assay pair)
T1 sequence (Q9NZQ7 19-238): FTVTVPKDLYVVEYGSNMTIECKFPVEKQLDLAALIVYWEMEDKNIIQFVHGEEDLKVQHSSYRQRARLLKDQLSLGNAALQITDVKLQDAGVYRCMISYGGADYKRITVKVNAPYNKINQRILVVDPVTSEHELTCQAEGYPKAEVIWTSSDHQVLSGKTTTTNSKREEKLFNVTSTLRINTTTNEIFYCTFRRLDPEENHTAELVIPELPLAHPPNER

[2] = target: T2, Recombinant human PD-L1 Fc chimera protein (R&D Systems 156-B7) (human, UniProt Q9NZQ7 19-238); test: ELISA; titration ELISA; 5 μg/mL PD-L1 Fc chimera immobilised on the plate at 4 °C for 12 h, blocked with 5% BSA; VSTM2A serial dilution (start 100 μg/mL) for 2 h at room temperature; fixed with DTSSP; pNPP, OD405; one-site specific binding fit; apparent KD; conditions: both partners purified
T2 construct: PD-L1, human, recombinant Fc chimera; also called recombinant human PD-L1 chimera protein; source: bought: R&D Systems (156-B7)
T2 sequence (Q9NZQ7 19-238, change not shown): as the sequence (Q9NZQ7 19-238) above

IC50 [1]: 4.51 nM
Kd [2]: 0.7 to 2.5 nM
B1: Recombinant human VSTM2A His-tag protein (R&D Systems 10037-VT-050, carrier-free) (ligand, UniProt Q8TAG5 25-236, looked up)
chain: SQAKFTEFPRNVTATEGQNVEMSCAFQSGSASVYLEIQWWFLRGPEDLDPGAEGAGAQVELLPDRDPDSDGTKISTVKVQGNDISHKLQISKVRKKDEGLYECRVTDANYGELQEHKAQAYLKVNANSHARRMQAFEASPMWLQDMKPRKNVSAAIPSSIHGSANQRTHSTSSPQVVAKIPKQSPQSGARIATSHGLSVLLLVCGFVKGALL
notes: VSTM2A, human, recombinant; also called recombinant VSTM2A; VSTM2A recombinant protein; source: bought: R&D Systems (10037-VT-050, carrier-free version)
